Data set [1] addresses T1, ANXA11 Ct (UniProt P50995 201-505).
T1 sequence: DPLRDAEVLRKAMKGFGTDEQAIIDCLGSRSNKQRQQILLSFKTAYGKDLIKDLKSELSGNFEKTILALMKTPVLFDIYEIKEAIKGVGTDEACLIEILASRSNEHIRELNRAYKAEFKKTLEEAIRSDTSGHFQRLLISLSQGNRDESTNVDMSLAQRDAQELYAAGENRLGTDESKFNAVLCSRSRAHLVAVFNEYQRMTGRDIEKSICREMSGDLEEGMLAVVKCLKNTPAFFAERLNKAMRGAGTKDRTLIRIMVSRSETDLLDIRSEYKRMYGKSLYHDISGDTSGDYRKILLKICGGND
Description: MST.

For data set [2], the target named is ANXA11 Nt (UniProt P50995 1-191). Kind of data set: MST.
ANXA11 Nt, sequence (P50995 1-191): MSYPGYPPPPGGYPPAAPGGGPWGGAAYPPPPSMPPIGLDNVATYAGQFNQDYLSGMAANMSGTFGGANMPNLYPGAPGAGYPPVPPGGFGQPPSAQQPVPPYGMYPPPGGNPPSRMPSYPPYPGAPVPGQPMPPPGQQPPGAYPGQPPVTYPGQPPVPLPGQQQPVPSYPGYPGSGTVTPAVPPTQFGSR

The term Kd denotes the concentration at which binding is half-saturated. UUUUUUUUUU (ssRNA) [poly-U 10-mer RNA]: the Kd was 3.55 ± 0.3 µM in data set [1] and 4.18 ± 0.8 µM in data set [2].

Values taken from doi:10.1101/2025.10.27.684738.
